Source: the nanobody polyreactivity screen of Harvey et al. (2022)

Assay: yeast display, Sf9 membrane polyspecificity reagent, FACS + sequencing; frameworks hold sequencing errors
In short: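 Nanobodies came from a synthetic yeast display library in Saccharomyces cerevisiae BJ5465, induced with galactose for 36–48 hours and stained for 1 hour at 4 °C with 10% biotinylated, detergent-solubilized Sf9 membrane reagent. Cells were enriched on streptavidin microbeads and then FACS-sorted, with low and high (top ~1%) gates set on anti-HA fluorescence for expression and streptavidin fluorescence for reagent binding. Each polyreactivity label reflects the gate a clone came from. Genes were amplified by colony PCR, sequenced by MiSeq 2 × 250 and filtered by CDR length.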

| Sequence | polyreactivity (PSR sort gate) |
| --- | --- |
| QVQLVESGGGLVQAGGSLRLSCAASGSTLYTYDMGWYRQAPGKERELVASISGSDGSTYYADSVKGRFTISRDNAKNTVYLQMNSLKPEDTAVYYCAVDSYQTGVYFYYVYWDFDLGYWGQGTQVTVSS | low polyreactivity |
| QDQLVESGGGLVQAGGSLRLSCAASGSIFQSNAMGWYRQAPGKERELVAAITSVGRTNYADSVKGRFTIARDNAKNTVYLQMNSLKPEDTAVYYCAADLRGDNRYYYWGQGTQVTVSS | low polyreactivity |
| QVQLVESGGGLVQAGGSLRLSCAASGNIFYYYAMGWYRQAPGKERELVAAISNGITYYADSVKGRFTISRDNAKNTVYLQMNSLKPEDTAVYYCAVDSDGNVRAVSGESLYDYWGQGTQVTVSS | low polyreactivity |
| QVQLVESGGGLVQAGGSLRLSCAASGITFYEYAMGCYRQAPGKERELVATITSGGNTNYADSVKGRFTISRDNAKNTVYLQMNSLKPEDTAVYYCNKEWDGDGYTDDCDYDYWGQGTQVTVSS | low polyreactivity |
| QVQLVESGGGLVQAGGSLRLSCAASGSNFYPYAMGWYRQAPGKEREFVAAITRSGGSTSYADSVKGRFTISRDNAKNTVYLQMNSLKPVDTAVDYCAAGYWYPDYDGFDYWGQGTQVTGSS | low polyreactivity |
| QVQLVESGGGLVQAGGSLRLSCAASGRIFDYYAMGWYRPAPGKERELVAAITSGGTTTYYADSVKGRFTISRDNAKNTVYVQMNSLKPEDTAVYYCAKYPYHIYHTDGDYWGQGTQVTVSS | low polyreactivity |
| QFQLVESGGGLVQAGGSLRLSCSASGSIFVSNAMGRSRQAPGKERELVAAISSSGDSTYYADSVKGRFTISRDNAKNTFYVQMNSLKPEDNAVYYCAAVGPWWFPEYDYWGQGTQVTVSS | low polyreactivity |
| QVQLVESGGGLVQAGGSLRLSCAASGSTFVSYAMGWYRQAPGKEREFVAAITWSGGSTYYADSVKGRFTISRDNAKNTVYLQMNRLKPEDTAVYYFARPYRGSPRYYYWGQGTQVTVSS | high polyreactivity |
| QVQLVESGGGLVQAGGSLRLSCAASGFTFGNNAMGWYRQAPGKERELVAGISRTGGRTYYSDSVKGRFTISRDNAKKTVYLKMNSLKPEDTAVYYCNAVSTLYTGYDYWGQGTQVTVSS | high polyreactivity |
| QGQLVESGGGLVQAGGSLRLSCAASGFIFFSNAMGWYRQEPGKERELVAAISRIGVSTYYADSVKGRFTISRDNAKNTVYLQLNSLKPEDTAVYYCAADLSDYWRGDSWGQGTLVTVSS | low polyreactivity |
| QVHLVESGGGLVQAGGSLRLSCAASGSTFPWYARGWYRKAPGKERELVAAISGSSSTTYYADSVKGRFTISRDNAMNTVYLQMNSLKPEDTAVYYCNAVTTSGSGYGYWGQGTQVTVSS | low polyreactivity |
| QVQLVESGGGLVQAGGSLRLSCAASGFTLTSYAMGWYRQAPGKERELVAGISRGGITYYADSVKGRFTISRDNAKNTVYLQMNSLKPEDTAVYYCNARRTRRWPTTPEFTNFGYWGQGTQVTVSS | high polyreactivity |
| QVQLVESGGGLVQAGGSLRLSCAASGRTFGYNTMGWYRQAPGKERELVATISRGGSTYYADSVKGRFTISRDNAKNTVYLQMNSLKPEDTAVYYCRYQSRFRYDYWGQGTQVTVSS | high polyreactivity |
| QVQLVESGGGLVQAGGSLRLSCAASGITFVQNVMGWYRQAPGKEREFVAGINYSGGSTYYADSVKGRFTISRDNAKNTVYLQMNSLKPEDTAVYYCAADYDRYTYAFVYRYRRMYYWGQGTQVTVSS | low polyreactivity |
| QVQLVESGGGLVQAGGSLRLSCAASGRIFVWNTMGWYRQAPGKERELVAAITSGGSTTYADSVKGRFTISRDNAKNSVSFQMNSLKPEDTAVYYCNTELDLYHPGDDYWGQGTQVTVSS | high polyreactivity |
| QVQLEESGGGLVQAGGSLRLSCAASGSIFGAYTMGWYRQAPGKERELVAAISIGGSKNYADSVKGRFTISRDNAKNTVYLQMNSLKPEDTAVYYCNAEPDLEDWWWAIGLYDYWGQGTQVTVSS | high polyreactivity |

| Sequence | polyreactivity (PSR sort gate) |
| --- | --- |
| QVHLQESGGGLVQAGGSLRLSCAASGTISDSGLMGWYRQAPGKERELVAGISSGGINNYADSVKGRFTISRDNAKYTEYLQMNSLKPEDTAVYWGQGTQVTLSS | low polyreactivity |
| QVQLVESGGGLVQAGGSLRLSCAASGFTFYGNAMGWYRQAPGKERELVAAISSTGGSTFYADSVKGRFTISRDNAKNTVYLQMNSLKPEDTAVYYCAVRRYTKFRSTRYYYWGQGTQVTVSS | high polyreactivity |
| QVQLVESGGCLVQAGGSLRLSCAASGRTFRGYAMGWYRQAPGKERELVARISVSGGSTYYADSVKGRFTISRDNAKNTVYLQMNSLTPDDTAVYYCNARPYTYWRSQYDYWGQGTQVTVSS | high polyreactivity |
| QVQLVESGGGLVQAGGSLRLSCAASGYTVRFNAMGWYRQAPGKEREFVAAIDFGGAGTYYADSVKGRFTISRDNAKNTVYLQMNSLKPEDTAVYYCNARDGVTTEFDYWGQGTQVTVSS | low polyreactivity |
| QVQLVESGGVLVQAGGSLRLSCAASGSTFSVNVMGWSRQAPGKERELVAAINSGGSTDYADSVKGRLTISRDNAKNTVYLQMNSLKPEYTAVYYCNAYDIVIYDYWGQGTQVTVSS | low polyreactivity |
| QVQLVESGGGLVQAGGSLRLSCAASGSIFGGYAMGWYRQAPGKERELVAAISVSDDITYYADSVKGRFTISRDNAKNTVYLQMNSLKPEDTAVYYCAAEPDTNYVVRYDYWGQGTQVTVSS | high polyreactivity |
| QVQLVESGGGLVQAGGSLRLSCAASGSTFYPNAMGWYRQAPGKERELVAAISWSGGRTYYADSVKGRFTISRDNAKNTVYLQMNSLKPEDTAVYYCNAARYPSSWYYKLDYWGQGTQVTVSS | high polyreactivity |
| QVQLVESGGGLVQAGGSLRLSCAASGSIIFRYAMGWSRQAPGKERELVARISWGGGRTYYADSVKGRFTISRDNAQNTVYLQMNSLKPEDSAVYYCNRAFWVNPGGFDYWGQGTQVTVSS | high polyreactivity |
| QVQLVESGGGLVQAGGSLRLSCAASGFIFYKYAMGWYRQAPGKEREFVAAISSRGSRTYYADSVKGRFTISRDNAKNTVYLQMNSLKPEDTAVYYCAAGYWARLYDYDYWGQGTQVTVSS | high polyreactivity |
| QVQLVESGGGLVQAGGSLRLSCAASGRTFDGYVMGWYRQAPGKERELVAAISWGGSSTYYADSVKGRFTISRDNAKNTVYLQMNSLKPEDTAVYYCAKDTVPYERDYWGQGTQVTVSS | low polyreactivity |
| QVQLVESGGGLVQAGGSLRLSCAASGRTFDTNAMGWYRQAPGKERELVAAISWSAGRTYYADSVKGRFTISRDNAKNTVYLQMNSLKPEDTAVYYCAARPPFIAYSWQKQGYYWGQGTQVTVSS | low polyreactivity |
| QVQLVESGGGLDQAGGSLRLSCAASVFIFAYYAMGWYRQAPGKERELVAAITRHGGSTYDADSVKGRFTISRDNAQNTVYLQMNSLKPEETAVYYCNAYFGWSASRQSYDYWGQGTQVTVSS | high polyreactivity |
| QVQLVESGGGLVQAGGSLRLSCAASGFTFERYTMGWYIQAPGKERELVATISRRSGRTSYADSVKGRFTISRDNAKNTVYLQMNSLKPEDTEVYYCAVDYAYPDRYDYWGQGTQVTVSS | high polyreactivity |
| QVQLVESGGGLVQAGGSLRLSCAASGIIFFSNAMGWYRQAPGKERELVAAIDDSDGVTYYADSVKGRFTISRDNAKNTVYLQMNSLKPEDTAVYYCAAVDGWTYTGSDYWGDGTQVTVSS | low polyreactivity |
| QVQLVESGGGLVQAGGILRLSCAASGSTFSSNAMGWYRQAPGKERELVAAISVNGGSTNYADSVKVRFTISRDNAKNTVYLQMNSLKPEDTAVYYCAAEPAKVAFYRGDYWGQGTEVTVSS | low polyreactivity |
| QVQLVESGGGLVQAGGSLRLSCAASGRTFYAYGMGWYRQAPGKERELVARISSSTGRTYYADSVKGRFTISRDNAKNTVYLQMNSLKPEDTAVYYCAALFYGYRGGGYGGPAAGDYWGQGTQVTVSS | high polyreactivity |
